The source of these data is the supplement of paper PMC5998384.

Data set [1] concerns HeLa Kyoto. As to the kind of experiment: solubility in G1/S (NP-40 vs SDS abundance) (log2 ratio); higher = more soluble. The following applies: cell cycle stage: G1/S.
For data set [2], the system named is HeLa Kyoto. Briefly: melting temperature (median over replicates), in situ; higher = more thermally stable.
Data set [3] relates to HeLa Kyoto. As to the kind of experiment: solubility change mitosis vs G1/S (difference of NP-40 vs SDS log2 ratios) (log2 ratio difference); higher = more soluble in mitosis.
Data set [4] has as its system HeLa Kyoto. Briefly: thermal stability score vs G1/S (z-score of summed log2 fold changes over temperatures); higher = more thermally stable than in G1/S.
[5] abbreviates: cell cycle stage: early G1 (4.5 h after nocodazole release).
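Throughout, for melting temperature (median over replicates), in situ: HeLa Kyoto cells synchronized by double thymidine or nocodazole block, proteins quantified by TMT10plex mass spectrometry, three independent biological replicates.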
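Throughout, for solubility change mitosis vs G1/S (difference of NP-40 vs SDS log2 ratios): synchronized HeLa Kyoto cells (double thymidine block for G1/S, nocodazole release for mitosis), protein amounts in NP-40 versus SDS lysates quantified by mass spectrometry, three biological replicates.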
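Throughout, for solubility in G1/S (NP-40 vs SDS abundance): HeLa Kyoto cells arrested at G1/S by double thymidine block, proteins quantified by TMT10plex mass spectrometry in mild NP-40 versus SDS extracts, three biological replicates.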
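Throughout, for thermal stability score vs G1/S (z-score of summed log2 fold changes over temperatures): synchronized HeLa Kyoto cells, proteins quantified by TMT10plex mass spectrometry, three biological replicates, mitosis taken 0.5 h after nocodazole release, G1/S directly after double thymidine block.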

As to “MGLQLRALLGAFGRWTLRLGPRPSCSPRMAGNAEPPPAGAACPQDRRSCSGRAGGDRVWEDGEHPAKKLKSGGDEERREKPPKRKIVLLMAYSGKGYHGMQRNVGSSQFKTIEDDLVSALVRSGCIPENHGEDMRKMSFQRCARTDKGVSAAGQVVSLKVWLIDDILEKINSHLPSHIRILGLKRVTGGFNSKNRCDARTYCYLLPTFAFAHKDRDVQDETYRLSAETLQQVNRLLACYKGTHNFHNFTSQKGPQDPSACRYILEMYCEEPFVREGLEFAVIRVKGQSFMMHQIRKMVGLVVAIVKGYAPESVLERSWGTEKVDVPKAPGLGLVLERVHFEKYNQRFGNDGLHEPLDWAQEEGKVAAFKEEHIYPTIIGTERDERSMAQWLSTLPIHNFSATALTAGGTGAKVPSPLEGSEGDGDTD [PUS1]”, in the data set with HeLa Kyoto [1], the “solubility in G1/S (log2)” value was found to be 0.281. Further, the melting temperature with HeLa Kyoto [2] (cell cycle stage: G1/S) is 46.8 °C; in the data set with HeLa Kyoto [2] (cell cycle stage: mitosis) it was 48.7 °C. For the same sequence, the “solubility change mitosis (log2)” value in the data set on HeLa Kyoto [3] was -0.119. Further, the thermal stability score in the data set with HeLa Kyoto [4] (setting [5]) stood at 1.9; in the data set on HeLa Kyoto [4] (cell cycle stage: mitosis), 6.23.
In the case of “MGLQPLEFSDCYLDSPWFRERIRAHEAELERTNKFIKELIKDGKNLIAATKSLSVAQRKFAHSLRDFKFEFIGDAVTDDERCIDASLREFSNFLKNLEEQREIMALSVTETLIKPLEKFRKEQLGAVKEEKKKFDKETEKNYSLIDKHLNLSAKKKDSHLQEADIQVEQNRQHFYELSLEYVCKLQEIQERKKFEFVEPMLSFFQGMFTFYHQGHELAKDFNHYKMELQINIQNTRNRFEGTRSEVEELMNKIRQNPKDHKRASQFTAEGYLYVQEKRPAPFGSSWVKHYCMYRKAAKKFNMIPFEHRSGGKLGDGEVFFLKECTKRHTDSIDRRFCFDIEAADRPGVSLTMQAFSEEERKQWLEALGGKEALSHSFNTAIIPRPEGNAQLDKMGFTIIRKCISAVETRGINDQGLYRVVGVSSKVQRLLSMLMDVKTCNEVDLENSADWEVKTITSALKQYLRSLPEPLMTYELHGDFIVPAKSGSPESRVNAIHFLVHKLPEKNKEMLDILVKHLTNVSNHSKQNLMTVANLGVVFGPTLMRPQEETVAALMDLKFQNIVVEILIENHEKIFRTPPDTTFPEPTCLSASPPNAPPRQSKRQGQRTKRPVAVYNLCLELEDGDNPYPSKEDTPTSSLDSLSSPSPVTTAVPGPPGPDKNHLLADGGSFGDWASTIPGQTRSSMVQWLNPQSPTTTSSNSAVTPLSPGSSPFPFSPPATVADKPPESIRSRKARAVYPCEAEHSSELSFEIGAIFEDVQTSREPGWLEGTLNGKRGLIPQNYVKLL [ARHGAP10]”, in the data set with HeLa Kyoto [1], the “solubility in G1/S (log2)” value was -0.255. In addition, the melting temperature in the data set with HeLa Kyoto [2] (cell cycle stage: G1/S) was 51.7 °C. In addition, the “solubility change mitosis (log2)” value in the data set with HeLa Kyoto [3] amounted to 0.08. The thermal stability score was -0.188 with HeLa Kyoto [4] (setting [5]) and -0.186 with HeLa Kyoto [4] (cell cycle stage: mitosis).
For the sequence “MGLSPSAPAVAVQASNASASPPSGCPMHEGKMKGCPVNTEPSGPTCEKKTYSVPAHQERAYEYVECPIRGTAAENKENLDPSNLMPPPNQTPAPDQPFALSTVREESSIPRADSEKKWVYPSEQMFWNAMLKKGWKWKDEDISQKDMYNIIRIHNQNNEQAWKEILKWEALHAAECPCGPSLIRFGGKAKEYSPRARIRSWMGYELPFDRHDWIINRCGTEVRYVIDYYDGGEVNKDYQFTILDVRPALDSLSAVWDRMKVAWWRWTS [HCCS]”, the “solubility in G1/S (log2)” value with HeLa Kyoto [1] turned out to be 0.328. In addition, the melting temperature stood at 55.3 °C in the data set on HeLa Kyoto [2] (cell cycle stage: G1/S) and 55.1 °C with HeLa Kyoto [2] (cell cycle stage: mitosis). Also, in the data set with HeLa Kyoto [3], the “solubility change mitosis (log2)” value is -0.0745. Moreover, the thermal stability score was -0.00681 in the data set on HeLa Kyoto [4] (setting [5]) and -0.977 in the data set with HeLa Kyoto [4] (cell cycle stage: mitosis).
“MGLYAAAAGVLAGVESRQGSIKGLVYSSNFQNVKQLYALVCETQRYSAVLDAVIASAGLLRAEKKLRPHLAKVLVYELLLGKGFRGGGGRWKALLGRHQARLKAELARLKVHRGVSRNEDLLEVGSRPGPASQLPRFVRVNTLKTCSDDVVDYFKRQGFSYQGRASSLDDLRALKGKHFLLDPLMPELLVFPAQTDLHEHPLYRAGHLILQDRASCLPAMLLDPPPGSHVIDACAAPGNKTSHLAALLKNQGKIFAFDLDAKRLASMATLLARAGVSCCELAEEDFLAVSPSDPRYHEVHYILLDPSCSGSGMPSRQLEEPGAGTPSPVRLHALAGFQQRALCHALTFPSLQRLVYSTCSLCQEENEDVVRDALQQNPGAFRLAPALPAWPHRGLSTFPGAEHCLRASPETTLSSGFFVAVIERVEVPR [NSUN5]”: the “solubility in G1/S (log2)” value with HeLa Kyoto [1] was -0.194. Further, the melting temperature came to 48.7 °C in the data set on HeLa Kyoto [2] (cell cycle stage: G1/S) and 50.2 °C in the data set with HeLa Kyoto [2] (cell cycle stage: mitosis). Further, the “solubility change mitosis (log2)” value with HeLa Kyoto [3] amounted to 0.282. Further, the thermal stability score in the data set on HeLa Kyoto [4] (setting [5]) is 0.348; in the data set on HeLa Kyoto [4] (cell cycle stage: mitosis), -0.0976.
Consider “MGNCHTVGPNEALVVSGGCCGSDYKQYVFGGWAWAWWCISDTQRISLEIMTLQPRCEDVETAEGVALTVTGVAQVKIMTEKELLAVACEQFLGKNVQDIKNVVLQTLEGHLRSILGTLTVEQIYQDRDQFAKLVREVAAPDVGRMGIEILSFTIKDVYDKVDYLSSLGKTQTAVVQRDADIGVAEAERDAGIREAECKKEMLDVKFMADTKIADSKRAFELQKSAFSEEVNIKTAEAQLAYELQGAREQQKIRQEEIEIEVVQRKKQIAVEAQEILRTDKELIATVRRPAEAEAHRIQQIAEGEKVKQVLLAQAEAEKIRKIGEAEAAVIEAMGKAEAERMKLKAEAYQKYGDAAKMALVLEALPQIAAKIAAPLTKVDEIVVLSGDNSKVTSEVNRLLAELPASVHALTGVDLSKIPLIKKATGVQV [FLOT2]”, for which, in the data set with HeLa Kyoto [1], the “solubility in G1/S (log2)” value was -1.04. Further, the melting temperature with HeLa Kyoto [2] (cell cycle stage: G1/S) came to 56.8 °C; with HeLa Kyoto [2] (cell cycle stage: mitosis), 55.8 °C. In the data set on HeLa Kyoto [3], the “solubility change mitosis (log2)” value turned out to be 0.153. Further, the thermal stability score is -2.8 in the data set on HeLa Kyoto [4] (setting [5]) and -0.0606 in the data set on HeLa Kyoto [4] (cell cycle stage: mitosis).
